Reference: paper PMC3585288, “Interactions of Archaeal Chromatin Proteins Alba1 and Alba2 with Nucleic Acids” (PLoS ONE, 2013)

B1: SPRspecAP (dsDNA)
DNA 1: CCCCCCCGTGAAAGCCTAGACAGCGAGGCCCCCCC
DNA 2: GGGGGGGCCTCGCTGTCTAGGCTTTCACGGGGGGG
B2: Alba2 protein from Aeropyrum pernix (APE1823) (natural protein)
chain: MACEGAPEVRIGRKPVMNYVLAILTTLMEQGTNQVVVKARGRNINRAVDAVEIVRKRFAKNIEIKDIKIDSQEIEVQTPEGQTRTRRVSSIEICLEKAGESA
notes: Alba2 (Ape10b2), Aeropyrum pernix, locus APE1823; 102 amino-acid residues (11,380 Da); His-tag is removable by thrombin; Co-expression with untagged Alba1 may leave Alba1 in the Alba2 preparation (my surmise); also called Ape10b2; APA2
B3: Alba1 protein from Aeropyrum pernix (APE1832.1) (natural protein, UniProt Q9YAW1 1-94, looked up)
chain: MSIEPQKPNTILVGRKPTINYVMAALKLLNEEGAPEVVIKARGRNICNAVDTVEMLKNLFIKNLVIKKVNIYSESLDSEGKKKVSAIEIVVAKG
notes: Alba1 (Ape10b1), Aeropyrum pernix, locus APE1832.1; 94 amino-acid residues (10,336 Da); His-tag is removable by thrombin; also called Ape10b1; APA1

Legend:
Alba2 (Ape10b2) = target: T1, Alba2 (Ape10b2) (Aeropyrum pernix, UniProt Q9YAX2 1-102); test: SPR; 6.0 uM protein; slower association and dissociation; ITC: 50 mM NaH2PO4, pH 7.0, 25 C; SPR: 50 mM NaH2PO4, 150 mM NaCl, 0.005% P20, pH 7.0, 25 C; UV melting: 50 mM NaH2PO4, pH 7.0; EMSA: 0.8% agarose, 1 h at room; conditions: protein: recombinant; tags: His-tag (pETDuet-1); chain copies: 2; label: 5'-biotin on one strand (S1); blunt
T1 sequence: B2 chain

Alba1 (Ape10b1) = target: T2, Alba1 (Ape10b1) (Aeropyrum pernix, UniProt Q9YAW1 1-94); test: SPR; 6.0 uM protein; saturable, fast association; ITC: 50 mM NaH2PO4, pH 7.0, 25 C; SPR: 50 mM NaH2PO4, 150 mM NaCl, 0.005% P20, pH 7.0, 25 C; UV melting: 50 mM NaH2PO4, pH 7.0; EMSA: 0.8% agarose, 1 h at room; conditions: protein: recombinant; tags: His-tag (pQE-30UA); chain copies: 2; label: 5'-biotin on one strand (S1); blunt
T2 sequence: B3 chain

[1] = target: T3, Alba1 (Ape10b1);Alba2 (Ape10b2) (Aeropyrum pernix;Aeropyrum pernix, UniProt Q9YAW1;Q9YAX2 1-94;1-102, |); test: SPR; 6.0 uM equimolar complex; biphasic; ITC: 50 mM NaH2PO4, pH 7.0, 25 C; SPR: 50 mM NaH2PO4, 150 mM NaCl, 0.005% P20, pH 7.0, 25 C; UV melting: 50 mM NaH2PO4, pH 7.0; EMSA: 0.8% agarose, 1 h at room; conditions: protein: recombinant;recombinant; tags: His-tag (pQE-30UA); copies: 1;1; label: 5'-biotin on one strand (S1); blunt
T3 sequence 1: B3 chain
T3 sequence 2: B2 chain

[2] = target: the molecule itself; test: native gel or EMSA; native protein PAGE, 20% acrylamide homogeneous gel, PhastSystem, acidic buffer agarose strips, proteins migrating towards the negative electrode; equinatoxin II (19.82 kDa) as size reference

Row | Binder | binding result (Alba2 (Ape10b2)) | binding result (Alba1 (Ape10b1)) | binding result [1] | stoichiometry N [2]
1 | B1 | binds | binds | binds | 
2 | B2 |  |  |  | 2
3 | B3 |  |  |  | 2
